Source: article PMC3985653, “A bacteriophage transcription regulator inhibits bacterial transcription initiation by σ-factor displacement”

Columns and labels:
[1] = target: T1, P7-sensitive core RNA polymerase (P7SE; hybrid E. coli core with Xo beta' N-terminus NLFN);sigma70 (Escherichia coli (397c cells, …, UniProt P0A7Z4;P0A8V2;Q2NZX9;P0A800;P00579 1-329;1-1342;1-10+P0A8T7:11-1407;2-91;1-613, internal_change|); assay: KMnO4 footprinting; conditions: protein: recombinant;recombinant; tags: C-6His on beta';N-6His-HMK in 32P-labelled experiments; unlabelled form purified separately; chain copies: 2;1;1;1;1; label: 5'-32P on one strand; blunt
[2] = target: T1, P7-sensitive core RNA polymerase (P7SE; …); assay: EMSA; no P7; heparin-resistant open complex; conditions: protein: recombinant;recombinant; tags: C-6His on beta';N-6His-HMK in 32P-labelled experiments; unlabelled form purified separately; chain copies: 2;1;1;1;1; blunt

Binder | binding result [1] | binding result [2]
T5 N25 promoter [-65 to +35] (dsDNA) DNA 1: TCTTTGCTCAAAGAATCATAAAAAATTTATTTGCTTTCAGGAAAATTTTTCTGTATAATAGATTCATAAATTTGAGAGAGGAGTTTAAATATGGCTGGTTC DNA 2: GAACCAGCCATATTTAAACTCCTCTCTCAAATTTATGAATCTATTATACAGAAAAATTTTCCTGAAAGCAAATAAATTTTTTATGATTCTTTGAGCAAAGA | binds | 
lacUV5 promoter [-64 to +36] (dsDNA) DNA 1: GTTAGCTCACTCATTAGGCACCCCAGGCTTTACACTTTATGCTTCCGGCTCGTATAATGTGTGGAATTGTGAGCGGATAACAATTTCACACAGGAAACAG DNA 2: CTGTTTCCTGTGTGAAATTGTTATCCGCTCACAATTCCACACATTATACGAGCCGGAAGCATAAAGTGTAAAGCCTGGGGTGCCTAATGAGTGAGCTAAC |  | binds
